# * marks the point of attachment. 5FAM = O=C1OC2(c3ccc(O)cc3Oc3cc(O)ccc32)c2ccc(C(=O)*)cc21
# B1: DAX1-3 FAM-labeled coregulator peptide (peptide)
# peptide: 5FAM-QGSILYSLLMSAKQ-OH
# SMILES: CC[C@H](C)[C@H](NC(=O)[C@H](CO)NC(=O)CNC(=O)[C@H](CCC(N)=O)NC(=O)c1ccc2c(c1)C(=O)OC21c2ccc(O)cc2Oc2cc(O)ccc21)C(=O)N[C@@H](CC(C)C)C(=O)N[C@@H](Cc1ccc(O)cc1)C(=O)N[C@@H](CO)C(=O)N[C@@H](CC(C)C)C(=O)N[C@@H](CC(C)C)C(=O)N[C@@H](CCSC)C(=O)N[C@@H](CO)C(=O)N[C@@H](C)C(=O)N[C@@H](CCCCN)C(=O)N[C@@H](CCC(N)=O)C(=O)O
# B2: SHP-1 FAM-labeled coregulator peptide (peptide)
# peptide: 5FAM-RPTILYALLSPSPR-OH
# SMILES: CC[C@H](C)[C@H](NC(=O)[C@@H](NC(=O)[C@@H]1CCCN1C(=O)[C@H](CCCNC(=N)N)NC(=O)c1ccc2c(c1)C(=O)OC21c2ccc(O)cc2Oc2cc(O)ccc21)[C@@H](C)O)C(=O)N[C@@H](CC(C)C)C(=O)N[C@@H](Cc1ccc(O)cc1)C(=O)N[C@@H](C)C(=O)N[C@@H](CC(C)C)C(=O)N[C@@H](CC(C)C)C(=O)N[C@@H](CO)C(=O)N1CCC[C@H]1C(=O)N[C@@H](CO)C(=O)N1CCC[C@H]1C(=O)N[C@@H](CCCNC(=N)N)C(=O)O
# B3: PGC1α FAM-labeled coregulator peptide (peptide)
# peptide: 5FAM-EEPSLLKKLLLAPA-OH
# SMILES: CC(C)C[C@H](NC(=O)[C@H](CC(C)C)NC(=O)[C@H](CC(C)C)NC(=O)[C@H](CCCCN)NC(=O)[C@H](CCCCN)NC(=O)[C@H](CC(C)C)NC(=O)[C@H](CC(C)C)NC(=O)[C@H](CO)NC(=O)[C@@H]1CCCN1C(=O)[C@H](CCC(=O)O)NC(=O)[C@H](CCC(=O)O)NC(=O)c1ccc2c(c1)C(=O)OC21c2ccc(O)cc2Oc2cc(O)ccc21)C(=O)N[C@@H](C)C(=O)N1CCC[C@H]1C(=O)N[C@@H](C)C(=O)O
# Target: human LRH-1 (NR5A2) ligand-binding domain (LBD) (human, UniProt O00482-1 266-541)
# Sequence (O00482 266-541): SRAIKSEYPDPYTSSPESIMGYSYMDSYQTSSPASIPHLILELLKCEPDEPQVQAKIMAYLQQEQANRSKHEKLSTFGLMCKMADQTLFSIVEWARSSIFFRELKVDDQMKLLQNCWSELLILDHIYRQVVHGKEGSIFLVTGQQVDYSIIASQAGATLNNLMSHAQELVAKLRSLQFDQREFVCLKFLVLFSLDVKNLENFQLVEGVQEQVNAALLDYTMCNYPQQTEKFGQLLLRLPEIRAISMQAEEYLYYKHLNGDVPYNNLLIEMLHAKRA
# Experiment: fluorescence polarisation
row,Binder,binding result
1,B1,binds
2,B2,binds
3,B3,binds

# — doi:10.1101/2024.05.05.592606 (bioRxiv, 2024)
